Experimental data: a protein production outcome set (Wang et al. 2014)

Assay: label from the status in PepcDB records

Sequence | protein production
MPVLVASDLDRTLIYSAAALGLTMPDLRAPRLLCVEVYESKPLSYLTETAAQLLTDLGDSALFVPTTTRTRKQYQRINLPGPAPKYAICANGGHLLVDGVSDPGWHARVTARLADECASLAEVRDHLTNTADPLWVRKHRVAEDLFAYLVVERDLLPQDWVKELAVWAENRGWTVSLQGRKIYAVPKPLTKSAAMHEVARRTGAELTLAAGDSLLDADLLLAADRGWRPGHGELADSGWTAPTISALPERGVLAGERILREFLRAVRPAR | failed
MPVNQYQQEVGETLEHFAVGQMPDVKFLEGRYCSVEHIDARKHLNDIIDFYWKNAVPSDWTYMFDQPFETAEAVQERLQDYEKSENPYFFAIRDKETDKVLGTFSLMRIDPKNRVLEMGRVIYAPALQKTSAATEAQYLVMNYVFENLGYRRYEWKCDHLNQSSGNAAKRLGFTYEGTFRKHVVYKGRTRDTDWFSVIDQDWPKLKKRFENWLSPKNFDKTGQQIKALKDC | failed
MPVQNRIHKGINMNSYAHLNVEKRGHTAVVTIDNPPANTWNRASLTALKQLVADLNADRDIYALVITGQGEKFFSAGADLNLFADGDKKVATEMTLLFGEAFEALSAFRGVSIAAINGYAMGGGLECALACDIRIAEEQAQMALPEAGVGLLPCAGGTQNLPWLVGEGWAKRMILCGERVNAATAERIGLVEQVVAKGEALAAALKLAEGVARQSPSSVGVCKQLVQAARTQPPAWNLIKEREAFIKLFDTQDQAEGTRAFLEKRAPNWKNA | failed
MPVQTYPVDIVIRAYDRPGLLRDVSQVLLNEKINVLAVNTRSNKEDNTALMSLTIEIPGLDALGRLLGRISQLPNIIETRRNRTPLEHHHHHH | failed
MPVRASIEPLTWENAFFGVNSAIVRITSEAPLLTPDALAPWSRVQAKIAASNTGELDALQQLGFSLVEGEVDLALPVNNVSDSGAVVAQETDIPALRQLASAAFAQSRFRAPWYAPDASGRFYAQWIENAVRGTFDHQCLILRAASGDIRGYVSLRELNATDARIGLLAGRGAGAELMQTALNWAYARGKTTLRVATQMGNTAALKRYIQSGANVESTAYWLYR | not failed
MPVTDVKHDLDTLTLTITAEFAAPVTRIWQIYADPRQLEKVWGPPSHPATVVDHDLRPGGRVTYFMTGPDGEKYAGYWEITAVDEPHSFSFLDGFADEDFNPNTDLPVSTNVYTFTEHDGGTRATYVGTYASAEALQQVLDMGVIEGASSAINQIDALLTA | failed
MPVTEKDLAEDAPWKKIQQNTFTRWCNEHLKCVNKRIGNLQTDLSDGLRLIALLEVLSQKRMYRKYHQRPTFRQMQLENVSVALEFLDRESIKLVSIDSKAIVDGNLKLILGLVWTLILHYSISMPVWEDEGDDDAKKQTPKQRLLGWIQNKIPYLPITNFNQNWQDGKALGALVDSCAPGLCPDWESWDPQKPVDNAREAMQQADDWLGVPQVITPEEIIHPDVDEHSVMTYLSQF | failed
MPYKLTLEACTKCGTCAEACTMYLGSGRKKIYSPVYRSDMLRKIYKKHFTLTGKLFGPLIGAKDPTEDDINALAESAYRCTVCRRCALACPFGLDNGLITRETRKIFADLGILEHHHHHH | not failed
MPYLPEVIIILVLIALNGIFAMSEFALVSAKKIRLRQKAEKGDAGAETALKLSNEPTAFLSTVQIGITLVGIFAGAFGGATIAGELDTYLRDFPALARYSATLSITLVVLIITYLTLILGELVPKQLALNNAETIASRVAKPMFFLSLMARPLVLVLSYSTDAVLRLLRVRKIIGPPVTEEEIKIMIEEGTEAGVFERAEMSMIEGVFDIGDRRVESLMTHRSDIIALDLDDPVDENLKKMIASGRSNFPVYERDLDDVIGIVSVKDVLAKLVESGKVDIRASVTKPLFAPEAITILKLLESFKETGMHIALITDEYGSVQGIITLHDILEAIVGDVRSLGEPEEEQITVLENGSWLIDGDTPVNKLKYVLSVDSFPGEEQGYYLTIAGLIMYILQRIPKTGDHMEFNGLRYEVVDMDGIRIDKVMVTKVPEISKD | not failed
MQAGSMSAPKQLVIIGAGEFAQIACEYFQHDSHYTVVAFSVERDFLLQHTLAELPVVAYEELEQRYPPEQYEVFVAIPATRLNRLRTRFFQDVVQRGYRCATYVSSRAFVWHNAQIGANCFIFEGNVIQPFTRIGDNCVLWSGNHIGHRTAVRDHVFIASHAVISGYCEIGQGSFIGVNATLSDKVHIAANNIIGAGALVTRHTEAERVYVGSPARAVAGRSSFDVEL | failed
MQAKLRLWLTFCVVTPVLLLFGNAGLAEQTPAPKVLKPVTSKAVGVTPRGQVLSLSCSSCHGTDGKSVGIMPSFYGKTPQYIETALLEFKSGKRYSTVMGRHAKGYSDDEIHLIAQYCGIKGQKTK | failed
MQAMTERLEAMLAQGTDNMLLRFTLGKTYAEHEQFDAALPHLRAALDFDPTYSVAWKWLGKTLQGQGDRAGARQAWESGLAAAQSRGDQQVVKELQVFLRRLAREDALEHHHHHH | not failed
MQARLSGTSIGLTGPAATKLVRLSRAIEWMSTIGIVLIVGLIGAVFLVPSWTRNLLLTKLGEIGTRLPLDAGNQALAAVIITVPVAVMLWGLVNVRALFAEFARGQVFTTTAATYLQRFGIAVLAQGLLGPVTATALALALSLSNPPGQRLLVLTFSSNDYVSVIVGGVLVAVAAVMREAARLADENASFV | failed
MQARWIGNMMFHVRTDSNHDVLMDTKEEVGGKDAAPRPLELVLTGLMGCTGMDVVSILRKMKVIDQMKDFRIEIEYERTEEHPRIFTKVHLKYIFKFDGEPPKDKVEKAVQLSQEKYCSVSAILKCSSKVTYEIVYEN | not failed
MQASENSHDDFLFIDDSDEDEILAFGSNETWQVLIVDDDPEIHSVTQLALSDLVVLGRRLEYLHAYSGKDACQLIENNDDIVLVLLDVVMETDDAGLNVVKYIRETLQRKDIRIVLRTGQPGYAPEESVIKEYDINDYKTKTELTRRKLVTTVFAAIRSFQQIATVNENRQGLEKIVSGATELSSQHSLPTFSQSVLSQLRTLISDDISAVFCARGQGIIDNIDDLSFYVLAQIGFDDSLLNQKIDTLQDNQANKQVKACFLQQKHQYLDDSLDLYVAKGDYRAVIHVRLSSPLTEIQTQLLNVFLTGVAVGYENVHLFQKLTNAAYRDWLTNLPNRLEFVRLLDSFAQNDCKNTVAALIDINHFSDINDALGQDIGNKLLSAVGQRIQSIGSDCQLARVGADVFGIIGPADCLTPESLIALFHQPFAAGEQHLPINACFGLCTKEHAQSSGVQVLNQINIALNIAKKNRLEHFAYYHSDIEDQMQWRLNMIRQLRNDFGNNCLELWYQPQLSLTTGKVIGAEALLRWRTADGKFVSPAVFIPLAEYSGLIIEIGDWVISQACKQLKVLEENFSDLSISVNVSIPQFRQDNFVDNIINTMTQYGIKPNKLELEITENILMDEPQIIIDALTKLKAQGISIALDDFGTGFSSLSYLQKLPLNRLKVDRAFVTDINKEGQSVIAETIINLGKKMQLKVIAEGIEEIEQQERLIELGCDEVQGFYYAKPMPADEFINFLHQQS | failed
MQATMTDKNTRELLLDAATTLFAEQGIAATTMAEIAASVGVNPAMIHYYFKTRDSLLDTIIEERIGRIIDMIWEPVTGEEDDPLIMVRDLVNRIVNTCETMLWLPSLWIREIVNEGGALREKMLNNIPIDKMNKFSAKIAEGQKQGVINSGIDSRLLIGSIIGLTMLPLATAKLRDQIPTMKGLSSEDIVCHVTALLFTGLTNPSNSDDIKKQRT | not failed
MQATTATPHDIVFLFDCDNTLLDNDHVLADLRAHMMREFGAQNSARYWEIFETLRTELGYADYLGALQRYRLEQPRDTRLLLMSSFLIDYPFASRVYPGALNALRHLGARGPTVILSDGDVVFQPRKIARSGLWDEVEGRVLIYIHKELMLDQVMECYPARHYVMVDDKLRILAAMKKAWGARLTTVFPRQGHYAFDPKEISSHPPADVTVERIGDLVEMDAEWLLAEKR | not failed
MQAVLTAALPVFALILTGWLAARWRVLGPSATDALNRYVVYLSLPALLFRAMAQADLRQLADYWGFTAAVAGGIALTFGAAILACRRDGARLTDLSLEGLATSYGNAGYMGIPLCLALLGPASLAPAIITTLLTACVLFGVAIALIEFDQHRDRHWSATLLKVARALLRNPLLAAPLLGLACAAAGITLPAGLDNYAALLGASASPCALVTIGLFLAQSQPGGDRGTVGLMVDGKLLLHPAVTAVLAFAVFDMPPLWAWCAVLMAALPIGTGPFMLAQLYGRDARPSSRAILLSTVLSVPTITALVAWIGRQPLG | failed
MQDKNFDKLAQKFAKNIYGTPKGEIRAAVLWRDLAPALAQFGDKKLRILDAGGGFGYFSQKLARLGHEVVLCDISAEMLAQAKEQIDASDTPLAIRLVHAPIQALSITEHGMFDLILCHAVVEWLADAKTTMEGLLTMLKPNGLFSLMFYNKEAMRFHALVSGNFDYVAADLKVKKKVRLTPTHPLYIHEVKLWFAQWQMALLKESGVRVIHDYLKKQQAADFDYQKLLSMELEYSQREPYISLGRYVHFLGLEHHHHHH | failed
MQDSLGIMIKKANNALARDSDHYAKSLGLTGMQISTINFIANNEQHHDLFQRDLELEFNIRKATCSSLVSKMEAADLLIRVPAKDDGRYKRLLLTPKARQLATKIERFFETSEQRMATILGVNTAETYEALRQIAVAFSTPTHAPENWY | failed
MQDWWEADNRLADWLSMILIQRTIEKNAKQALANLGPHLDLESLIGMDMATLEEYIYPAGFYKQKSIYIKALIKWFHGHGASLDKFQTYSTEDLRKELLGIKGVGEETADAMLLYIFERNVFIADLEHHHHHH | failed
MQEKGFKEGVKASLPTALGYVSIGLACGVVGANSGLTPFQMGLMSLLVYAGSAQFVMCAMFVAGADLFSIVMTVFLINLRNFLMSLHATTIFTKSSLWQTICIGTLITDESYGVLLNEHVHHKNISTAWMHGNNITGYIAWLFAVILGTALGSVIPNPETLGLDFALIAMFVSIFESQLAAMMQFVKLKKIGLILLAVTLSYFLLVIVISESLAVLLSTLIGCFAGVLLDVR | failed
MQEKPAATGKADESAASKELLKLLRKAVAAVSGEDGWASLSNLGSHISKIRPSFDSRNYGYSKLSTLVKNLDIFETRMVPSADKLHTDVFLRLKDGKLEHHHHHH | failed
MQENPSSSPFERRMESYQTQDSNDLHQLWRPREEDLEKLYRVPLGLTNEQLVEKLQLFSGEGEEKTLFVWVNRDLLGYRFLFWLTGMVLKEKQDGDVEHANKLEIIRDWVIESVVKIDRFLVRRVKQAEEKLKSLIQDYDSFKTSPEKKLLQITGQSEMDFVCLWVVVYTAVIAWKLRAAQTESSATHPSSIVVSECRHLLEQKDVFQRKTPKGLKLVAQLFDRSIEELNPRLKTLGDTDIREIGRLMTILELLPADPYRLLCRIACNLYDGAILLQYGVENYQIGSVRFGLDPYSFDSESKIPKLNNPFITIGK | failed
MQERIKACFTESIQTQIAAAEALPDAISRAAMTLVQSLLNGNKILCCGNGTSAANAQHFAASMINRFETERPSLPAIALNTDNVVLTAIANDRLHDEVYAKQVRALGHAGDVLLAISTRGNSRDIVKAVEAAVTRDMTIVALTGYDGGELAGLLGPQDVEIRIPSHRSARIQEMHMLTVNCLCDLIDNTLFPHQDD | not failed
MQFLAPIISIVVGFLSFVLVLRTWMQFCQVSAYLPLSQSLLRLTAPMVNPVSKFIPTVKNINFAALLIALALLAVEKGVLGLPLTMAVLVGLLGIIKMFGQILFFTTLIRALMSWVTRGDHPLDEVIAQITEPVLGIIRKILPRTGMLDFSVMVLGFGLLLLNNLFYSVFGAFWAVA | failed
